Results as given in patent US20110263454A1, “Methods of Identifying Functional Characteristics of Promoters, Transcription Modifying Proteins and Transcription Modulating Agents” (Salk Institute for Biological Studies, priority 2008, published 2011).

B1: ERR3: Estrogen Related Receptor γ (NR3B3, ERRg), cDNA driver (protein, UniProt P62508 1-458, looked up)
Estrogen-related receptor …: MDSVELCLPESFSLHYEEELLCRMSNKDRHIDSSCSSFIKTEPSSPASLTDSVNHHSPGGSSDASGSYSSTMNGHQNGLDSPPLYPSAPILGGSGPVRKLYDDCSSTIVEDPQTKCEYMLNSMPKRLCLVCGDIASGYHYGVASCEACKAFFKRTIQGNIEYSCPATNECEITKRRRKSCQACRFMKCLKVGMLKEGVRLDRVRGGRQKYKRRIDAENSPYLNPQLVQPAKKPYNKIVSHLLVAEPEKIYAMPDPTVPDSDIKALTTLCDLADRELVVIIGWAKHIPGFSTLSLADQMSLLQSAWMEILILGVVYRSLSFEDELVYADDYIMDEDQSKLAGLLDLNNAILQLVKKYKSMKLEKEEFVTLKAIALANSDSMHIEDVEAVQKLQDVLHEALQDYEAGQHMEDPRRAGKMLMTLPLLRQTSTKAVQHFYNIKLEGKVPMHKLFLEMLEAKV
B2: Erb: Estrogen Receptor β (NR3A2, ERb), cDNA driver (protein, UniProt Q92731 1-530, looked up)
Estrogen receptor beta: MDIKNSPSSLNSPSSYNCSQSILPLEHGSIYIPSSYVDSHHEYPAMTFYSPAVMNYSIPSNVTNLEGGPGRQTTSPNVLWPTPGHLSPLVVHRQLSHLYAEPQKSPWCEARSLEHTLPVNRETLKRKVSGNRCASPVTGPGSKRDAHFCAVCSDYASGYHYGVWSCEGCKAFFKRSIQGHNDYICPATNQCTIDKNRRKSCQACRLRKCYEVGMVKCGSRRERCGYRLVRRQRSADEQLHCAGKAKRSGGHAPRVRELLLDALSPEQLVLTLLEAEPPHVLISRPSAPFTEASMMMSLTKLADKELVHMISWAKKIPGFVELSLFDQVRLLESCWMEVLMMGLMWRSIDHPGKLIFAPDLVLDRDEGKCVEGILEIFDMLLATTSRFRELKLQHKEYLCVKAMILLNSSMYPLVTATQDADSSRKLAHLLNAVTDALVWVIAKSGISSQQQSMRLANLLMLLSHVRHASNKGMEHLLNMKCKNVVPVYDLLLEMLNAHVLRGCKSSITGSECSPAEDSKSKEGSQNPQSQ
B3: ERR2: Estrogen Related Receptor β (NR3B2, ERRb), cDNA driver (protein, UniProt O95718 1-433, looked up)
Steroid hormone receptor ERR2: MSSDDRHLGSSCGSFIKTEPSSPSSGIDALSHHSPSGSSDASGGFGLALGTHANGLDSPPMFAGAGLGGTPCRKSYEDCASGIMEDSAIKCEYMLNAIPKRLCLVCGDIASGYHYGVASCEACKAFFKRTIQGNIEYSCPATNECEITKRRRKSCQACRFMKCLKVGMLKEGVRLDRVRGGRQKYKRRLDSESSPYLSLQISPPAKKPLTKIVSYLLVAEPDKLYAMPPPGMPEGDIKALTTLCDLADRELVVIIGWAKHIPGFSSLSLGDQMSLLQSAWMEILILGIVYRSLPYDDKLVYAEDYIMDEEHSRLAGLLELYRAILQLVRRYKKLKVEKEEFVTLKALALANSDSMYIEDLEAVQKLQDLLHEALQDYELSQRHEEPWRTGKLLLTLPLLRQTAAKAVQHFYSVKLQGKVPMHKLFLEMLEAKV
B4: CTF1: COUP-TF1 (NR2F1), cDNA driver (protein, UniProt P10589 1-423, looked up)
COUP transcription factor 1: MAMVVSSWRDPQDDVAGGNPGGPNPAAQAARGGGGGAGEQQQQAGSGAPHTPQTPGQPGAPATPGTAGDKGQGPPGSGQSQQHIECVVCGDKSSGKHYGQFTCEGCKSFFKRSVRRNLTYTCRANRNCPIDQHHRNQCQYCRLKKCLKVGMRREAVQRGRMPPTQPNPGQYALTNGDPLNGHCYLSGYISLLLRAEPYPTSRYGSQCMQPNNIMGIENICELAARLLFSAVEWARNIPFFPDLQITDQVSLLRLTWSELFVLNAAQCSMPLHVAPLLAAAGLHASPMSADRVVAFMDHIRIFQEQVEKLKALHVDSAEYSCLKAIVLFTSDACGLSDAAHIESLQEKSQCALEEYVRSQYPNQPSRFGKLLLRLPSLRTVSSSVIEQLFFVRLVGKTPIETLIRDMLLSGSSFNWPYMSIQCS
B5: TR4: Testicular Orphan Nuclear Receptor 4 (NR2C2), cDNA driver (protein, UniProt P49116 1-596, looked up)
Nuclear receptor subfamily 2 …: MTSPSPRIQIISTDSAVASPQRIQIVTDQQTGQKIQIVTAVDASGSPKQQFILTSPDGAGTGKVILASPETSSAKQLIFTTSDNLVPGRIQIVTDSASVERLLGKTDVQRPQVVEYCVVCGDKASGRHYGAVSCEGCKGFFKRSVRKNLTYSCRSNQDCIINKHHRNRCQFCRLKKCLEMGMKMESVQSERKPFDVQREKPSNCAASTEKIYIRKDLRSPLIATPTFVADKDGARQTGLLDPGMLVNIQQPLIREDGTVLLATDSKAETSQGALGTLANVVTSLANLSESLNNGDTSEIQPEDQSASEITRAFDTLAKALNTTDSSSSPSLADGIDTSGGGSIHVISRDQSTPIIEVEGPLLSDTHVTFKLTMPSPMPEYLNVHYICESASRLLFLSMHWARSIPAFQALGQDCNTSLVRACWNELFTLGLAQCAQVMSLSTILAAIVNHLQNSIQEDKLSGDRIKQVMEHIWKLQEFCNSMAKLDIDGYEYAYLKAIVLFSPDHPGLTSTSQIEKFQEKAQMELQDYVQKTYSEDTYRLARILVRLPALRLMSSNITEELFFTGLIGNVSIDSIIPYILKMETAEYNGQITGASL
B6: CTF2: COUP-TF2 (NR2F2), cDNA driver (protein, UniProt P24468 1-414, looked up)
COUP transcription factor 2: MAMVVSTWRDPQDEVPGSQGSQASQAPPVPGPPPGAPHTPQTPGQGGPASTPAQTAAGGQGGPGGPGSDKQQQQQHIECVVCGDKSSGKHYGQFTCEGCKSFFKRSVRRNLSYTCRANRNCPIDQHHRNQCQYCRLKKCLKVGMRREAVQRGRMPPTQPTHGQFALTNGDPLNCHSYLSGYISLLLRAEPYPTSRFGSQCMQPNNIMGIENICELAARMLFSAVEWARNIPFFPDLQITDQVALLRLTWSELFVLNAAQCSMPLHVAPLLAAAGLHASPMSADRVVAFMDHIRIFQEQVEKLKALHVDSAEYSCLKAIVLFTSDACGLSDVAHVESLQEKSQCALEEYVRSQYPNQPTRFGKLLLRLPSLRTVSSSVIEQLFFVRLVGKTPIETLIRDMLLSGSSFNWPYMAIQ

Test system: mAgrp promoter
Assay: NHR-promoter luciferase screen, mAgrp promoter
Assay type: cell-based, mouse
Conditions: Table 6d; luciferase activity relative to control (control = 1.00)
Outline: (§1)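 CV-1 cells were co-transfected with 50 ng NHR (homodimer or NHR/RXR heterodimer), 100 ng promoter-luciferase construct and 50 ng LacZ. Luciferase was normalized to LacZ and to a no-NHR/no-ligand control.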

Molecule	Results of assays of transcription factor (+/- ligand) with mAgrp
B1	2.12
B2	0.98
B3	1.64
B4	0.71
B5	2.06
B6	1.08

Same assay, conditions: mAgrp promoter-luciferase, NHR +/- ligand, control = 1.0

Molecule	luciferase/LacZ, mAgrp (selected results)
B3	1.6
B5	2.1

Same assay, conditions: mAgrp promoter; HR component with or without ligand

Molecule	Luc. act., normalized to lacZ
B1	84.0
B2	39.0
B3	65.0
B4	28.2
B5	81.8
B6	42.7

Same assay, conditions: mAgrp promoter; HR component with or without ligand; relative to control

Molecule	Normalized Luc. act., normalized to control
B1	2.1
B2	1.0
B3	1.6
B4	0.7
B5	2.1
B6	1.1

Test system: mPOMC promoter
Assay: NHR-promoter luciferase screen, mPOMC promoter
Assay type: cell-based, mouse
Conditions: Table 6d; luciferase activity relative to control (control = 1.00)
Outline: as §1

Molecule	Results of assays of transcription factor (+/- ligand) with mPOMC
B1	2.02
B2	1.00
B3	1.57
B4	0.73
B5	3.75
B6	0.94

Same assay, conditions: mPOMC promoter; HR component with or without ligand

Molecule	Luc. act., normalized to lacZ
B1	139.4
B2	69.1
B3	108.6
B4	50.0
B5	258.7
B6	64.6

Same assay, conditions: mPOMC promoter; HR component with or without ligand; relative to control

Molecule	Normalized Luc. act., normalized to control
B1	2.0
B2	1.0
B3	1.6
B4	0.7
B5	3.8
B6	0.9

Test system: mADRP promoter
Assay: NHR-promoter luciferase screen, mADRP promoter
Assay type: cell-based, mouse
Conditions: ADRP promoter; HR/ligand component
Outline: as §1

Molecule	Luc. act., normalized to lacZ	Normalized Luc. act., normalized to control
B2	536.9	1.1
B3	874.7	1.8
B4	393.3	0.8
B5	1003.3	2.0
B6	893.8	1.8

Same assay, conditions: transcription factor +/- ligand; control = 1.00

Molecule	mADRP promoter reporter activity
B1	3.37
B2	1.08
B3	1.76
B4	0.79
B5	2.02
B6	1.80

Test system: mAdiponectin promoter
Assay: NHR-promoter luciferase screen, mAdiponectin promoter
Assay type: cell-based, mouse
Conditions: Adiponectin; HR component without or with its ligand
Outline: as §1

Molecule	Luc. act., normalized to lacZ	Normalized Luc. act., normalized to control
B1	69.7	1.1
B2	68.6	1.1
B3	55.3	0.9
B4	118.7	1.9
B5	296.1	4.7
B6	75.1	1.2

Same assay, conditions: transcription factor +/- ligand; control = 1.00

Molecule	mAdiponectin promoter reporter activity
B1	1.11
B2	1.09
B3	0.88
B4	1.89
B5	4.71
B6	1.20

Test system: RevErba promoter
Assay: NHR-promoter luciferase screen, RevErba (RVRa) promoter
Assay type: cell-based
Parameters: key to mRevErba promoter reporter activity / Normalized Luc. act., normalized to control: luciferase activity normalized to lacZ and to control (no NHR/ligand)
Conditions: RVRa promoter; HR component without or with ligand
Outline: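 CV-1 cells co-transfected with NHR (pcDNA3.1, C-terminal V5H6 tag) as homodimer or RXR heterodimer, RevErbα promoter–luciferase reporter and LacZ transfection control; ligand added where applicable. Luciferase normalized to LacZ and to no-NHR/no-ligand control.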

Molecule	Luc. act., normalized to lacZ	Normalized Luc. act., normalized to control
B1	123.1	4.4
B2	20.0	0.7
B3	42.3	1.5
B4	18.5	0.7
B5	26.5	0.9
B6	27.2	1.0

Same assay, conditions: RVRa promoter; given only where activity is below control

Molecule	negative reciprocal of normalized Luc. act. (fold repression; Table 33)
B2	−1.397
B4	−1.51
B5	−1.054
B6	−1.027

Same assay, conditions: RVRa promoter; log10 of activity normalized to control

Molecule	normalized Luc. act. on a logarithmic scale (column without head, Table 33)
B1	0.64
B2	−0.15
B3	0.18
B4	−0.18
B5	−0.02
B6	−0.01

Same assay, conditions: transcription factor +/- ligand; control = 1.00

Molecule	mRevErba promoter reporter activity
B1	4.40
B2	0.72
B3	1.51
B4	0.66
B5	0.95
B6	0.97
